Results from the supplement of paper PMC9112550, “Optimization of the antimicrobial peptide Bac7 by deep mutational scanning” (BMC Biology, 2022).

System: Escherichia coli TOP10
Experiment: shrunken log2 fold change of peptide-encoding DNA abundance (4.5 h post-induction vs induction); higher = less antimicrobial activity (less host growth inhibition)
Settings: time post-induction: 4.5 h; library: site-saturation at positions 5, 18, 19, 20
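Also: peptides expressed intracellularly from a pBAD plasmid library in pooled LB shake-flask culture, induced with 0.3% L-arabinose, DNA abundance read by NGS, three biological replicates, DESeq2 with apeglm shrinkage.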

Sequence | shrunken log2 fold change
RRIRNRPPRLPRPRPRPNMFPRP | -0.00614
RRIRQRPPRLPRPRPRPIWGPRP | -0.105
RRIRNRPPRLPRPRPRPIWTPRP | -0.115
RRIRSRPPRLPRPRPRPYVYPRP | -0.852
RRIRFRPPRLPRPRPRPMRWPRP | 0.264
RRIRRRPPRLPRPRPRPLDIPRP | -0.121
RRIRMRPPRLPRPRPRPWYRPRP | -0.277
RRIRIRPPRLPRPRPRPNDFPRP | -0.276
RRIRIRPPRLPRPRPRPHTPPRP | -0.721
RRIRTRPPRLPRPRPRPSEIPRP | -0.242
RRIRVRPPRLPRPRPRPLDCPRP | -0.0035
RRIRYRPPRLPRPRPRPVPWPRP | 0.277
RRIRPRPPRLPRPRPRPTDVPRP | 0.35
RRIRARPPRLPRPRPRPNSDPRP | 0.0804
RRIRLRPPRLPRPRPRPQWPPRP | 0.28
RRIRLRPPRLPRPRPRPRLNPRP | -0.0854
RRIRKRPPRLPRPRPRPLWAPRP | 0.452
RRIRQRPPRLPRPRPRPLMLPRP | -0.213
RRIRWRPPRLPRPRPRPQMTPRP | -0.0595
RRIRFRPPRLPRPRPRPFMTPRP | -0.333
RRIRKRPPRLPRPRPRPGQHPRP | -0.000613
RRIRTRPPRLPRPRPRPGALPRP | 0.00437
RRIRERPPRLPRPRPRPECDPRP | 0.12
RRIRHRPPRLPRPRPRPEIRPRP | 0.0924
RRIRVRPPRLPRPRPRPRIAPRP | 0.0659

Sequence | shrunken log2 fold change
RRIRYRPPRLPRPRPRPWCIPRP | 0.0404
RRIRIRPPRLPRPRPRPADPPRP | -0.071
RRIRVRPPRLPRPRPRPLAHPRP | 0.00485
RRIRSRPPRLPRPRPRPMVSPRP | 0.0287
RRIRTRPPRLPRPRPRPCWLPRP | -0.0724
RRIRTRPPRLPRPRPRPVAQPRP | 0.26
RRIRSRPPRLPRPRPRPSFDPRP | -0.264
RRIRKRPPRLPRPRPRPTTSPRP | 0.321
RRIRCRPPRLPRPRPRPKTMPRP | -0.172
RRIRRRPPRLPRPRPRPWHVPRP | -0.135
RRIRWRPPRLPRPRPRPWKNPRP | 0.0346
RRIRGRPPRLPRPRPRPICMPRP | 0.454
RRIRRRPPRLPRPRPRPQSMPRP | 0.0695
RRIRDRPPRLPRPRPRPGSQPRP | 0.0966
RRIRIRPPRLPRPRPRPIHGPRP | -0.0135
RRIRMRPPRLPRPRPRPRSMPRP | -0.00173
RRIRYRPPRLPRPRPRPHFWPRP | -0.257
RRIRWRPPRLPRPRPRPYTFPRP | 0.0563
RRIRERPPRLPRPRPRPYGVPRP | -0.128
RRIRYRPPRLPRPRPRPKTLPRP | -0.459
RRIRARPPRLPRPRPRPWDGPRP | 0.72
RRIRQRPPRLPRPRPRPYVHPRP | -0.258
RRIRSRPPRLPRPRPRPGPNPRP | -0.0665
RRIRPRPPRLPRPRPRPLRKPRP | 0.319
RRIRYRPPRLPRPRPRPRFFPRP | -0.0565

Sequence | shrunken log2 fold change
RRIRPRPPRLPRPRPRPCWRPRP | 0.00714
RRIRDRPPRLPRPRPRPKLGPRP | -0.000429
RRIRIRPPRLPRPRPRPHWGPRP | -0.175
RRIRNRPPRLPRPRPRPCFHPRP | -0.503
RRIRDRPPRLPRPRPRPLCEPRP | 0.715
RRIRIRPPRLPRPRPRPFDKPRP | -0.177
RRIRGRPPRLPRPRPRPTLWPRP | 1.27
RRIRIRPPRLPRPRPRPWQSPRP | -0.0531
RRIRIRPPRLPRPRPRPRSHPRP | -0.287
RRIRARPPRLPRPRPRPMIHPRP | -0.119
RRIRQRPPRLPRPRPRPWITPRP | -0.0754
RRIRERPPRLPRPRPRPWEYPRP | 0.0155
RRIRTRPPRLPRPRPRPPMIPRP | -0.44
RRIRMRPPRLPRPRPRPMAKPRP | 0.245
RRIRFRPPRLPRPRPRPSSTPRP | -0.325
RRIRNRPPRLPRPRPRPDFPPRP | -0.0345
RRIRCRPPRLPRPRPRPPKGPRP | 0.405
RRIRHRPPRLPRPRPRPWKKPRP | -0.0699
RRIRVRPPRLPRPRPRPYIPPRP | -1
RRIRRRPPRLPRPRPRPTMFPRP | 0.0275
RRIRSRPPRLPRPRPRPVSNPRP | -0.0276
RRIRLRPPRLPRPRPRPAIMPRP | -0.16
RRIRSRPPRLPRPRPRPSWQPRP | -0.227
RRIRVRPPRLPRPRPRPPTSPRP | 0.101
RRIRQRPPRLPRPRPRPDRIPRP | -0.185

Sequence | shrunken log2 fold change
RRIRSRPPRLPRPRPRPSYGPRP | -0.0636
RRIRLRPPRLPRPRPRPYSGPRP | -0.103
RRIRYRPPRLPRPRPRPWMTPRP | -0.663
RRIRDRPPRLPRPRPRPYEYPRP | -0.17
RRIRGRPPRLPRPRPRPPPPPRP | 1.54
RRIRQRPPRLPRPRPRPNGPPRP | -0.011
RRIRQRPPRLPRPRPRPMDAPRP | 0.05
RRIRERPPRLPRPRPRPEACPRP | -0.0166
RRIRSRPPRLPRPRPRPYLAPRP | -0.251
RRIRGRPPRLPRPRPRPWIRPRP | -0.164
RRIRYRPPRLPRPRPRPFNRPRP | -0.0175
RRIRYRPPRLPRPRPRPPYDPRP | -0.553
RRIRPRPPRLPRPRPRPRGSPRP | 0.285
RRIRGRPPRLPRPRPRPELKPRP | 0.336
RRIRMRPPRLPRPRPRPLDEPRP | 0.0492
RRIRVRPPRLPRPRPRPIEWPRP | -0.000773
RRIRVRPPRLPRPRPRPYSVPRP | -0.265
RRIRNRPPRLPRPRPRPRCHPRP | -0.572
RRIRQRPPRLPRPRPRPPHSPRP | 0.511
RRIRVRPPRLPRPRPRPGQNPRP | -0.104
RRIRVRPPRLPRPRPRPVESPRP | -0.0208
RRIRPRPPRLPRPRPRPTENPRP | 0.138
RRIRGRPPRLPRPRPRPVKIPRP | 0.16
RRIRPRPPRLPRPRPRPRVCPRP | 0.298
RRIRERPPRLPRPRPRPKWVPRP | -0.0367

Sequence | shrunken log2 fold change
RRIRDRPPRLPRPRPRPWMKPRP | -0.0188
RRIRVRPPRLPRPRPRPKVYPRP | -0.433
RRIRIRPPRLPRPRPRPHRYPRP | -0.171
RRIRWRPPRLPRPRPRPTNFPRP | 0.0339
RRIRDRPPRLPRPRPRPYLPPRP | 0.00286
RRIRCRPPRLPRPRPRPCTPPRP | -0.778
RRIRNRPPRLPRPRPRPDICPRP | 0.0866
RRIRFRPPRLPRPRPRPPIQPRP | 0.0333
RRIRMRPPRLPRPRPRPYNTPRP | -0.862
RRIRLRPPRLPRPRPRPNHGPRP | -0.17
RRIRQRPPRLPRPRPRPVGFPRP | 0.00249
RRIRRRPPRLPRPRPRPPGYPRP | 1.22
RRIRHRPPRLPRPRPRPFCSPRP | -0.171
RRIRMRPPRLPRPRPRPHWCPRP | -0.153
RRIRRRPPRLPRPRPRPWQIPRP | 0.0297
RRIRSRPPRLPRPRPRPLPQPRP | 0.461
RRIRTRPPRLPRPRPRPNDCPRP | 0.0184
RRIRTRPPRLPRPRPRPDVTPRP | -0.06
RRIRGRPPRLPRPRPRPNWAPRP | 0.363
RRIRFRPPRLPRPRPRPLSMPRP | -0.363
RRIRSRPPRLPRPRPRPIMRPRP | 0.73
RRIRIRPPRLPRPRPRPCSLPRP | -0.172
RRIRTRPPRLPRPRPRPNTRPRP | -0.318
RRIRNRPPRLPRPRPRPPDHPRP | 0.0887
RRIRFRPPRLPRPRPRPSMAPRP | 0.0143

Sequence | shrunken log2 fold change
RRIRYRPPRLPRPRPRPKANPRP | -0.512
RRIRGRPPRLPRPRPRPLLEPRP | 1.39
RRIRFRPPRLPRPRPRPCGAPRP | 0.0828
RRIRDRPPRLPRPRPRPLKFPRP | 0.0649
RRIRNRPPRLPRPRPRPNPSPRP | -0.00451
RRIRRRPPRLPRPRPRPFDKPRP | 0.0721
RRIRGRPPRLPRPRPRPGIGPRP | 0.942
RRIRRRPPRLPRPRPRPNPMPRP | 0.359
RRIRMRPPRLPRPRPRPDMSPRP | -0.00277
RRIRYRPPRLPRPRPRPSHTPRP | -1.39
RRIRPRPPRLPRPRPRPQTKPRP | -0.0309
RRIRYRPPRLPRPRPRPFDNPRP | 0.0112
RRIRSRPPRLPRPRPRPKPYPRP | -0.153
RRIRERPPRLPRPRPRPHQWPRP | -0.199
RRIRWRPPRLPRPRPRPESPPRP | 0.637
RRIRRRPPRLPRPRPRPHIKPRP | -0.43
RRIRNRPPRLPRPRPRPDGWPRP | 0.235
RRIRDRPPRLPRPRPRPTLEPRP | 1.06
RRIRIRPPRLPRPRPRPCVIPRP | -0.0683
RRIRIRPPRLPRPRPRPDIIPRP | -0.0935
RRIRVRPPRLPRPRPRPHEHPRP | -0.0873
RRIRDRPPRLPRPRPRPLQWPRP | 0.219
RRIRWRPPRLPRPRPRPWFEPRP | -0.0354
RRIRLRPPRLPRPRPRPWSSPRP | -0.469
RRIRGRPPRLPRPRPRPGFLPRP | 0.41
